Drawing on article PMC6547421, “A unique exonuclease ExoG cleaves between RNA and DNA in mitochondrial DNA replication” (Nucleic Acids Research, 2019), this text covers binding result and Kd for 7 molecules.

Data set [1] concerns the molecule itself. The experiment in a line: crystal structure; ExoG-H140A co-crystallised with a 12-bp dsDNA, an RNA/DNA hybrid duplex or an R2-DNA/DNA chimeric duplex (protein to substrate 1:1.2, 2 mM MgCl2), hanging drop vapor diffusion at 4°C; ExoG dimer in the asymmetric unit, each protomer bound to one duplex.
Data set [2] concerns the target T1, ExoG-H140A (catalytically dead) (Homo sapiens, UniProt Q9Y2C4 42-368, H140A).
T1 sequence: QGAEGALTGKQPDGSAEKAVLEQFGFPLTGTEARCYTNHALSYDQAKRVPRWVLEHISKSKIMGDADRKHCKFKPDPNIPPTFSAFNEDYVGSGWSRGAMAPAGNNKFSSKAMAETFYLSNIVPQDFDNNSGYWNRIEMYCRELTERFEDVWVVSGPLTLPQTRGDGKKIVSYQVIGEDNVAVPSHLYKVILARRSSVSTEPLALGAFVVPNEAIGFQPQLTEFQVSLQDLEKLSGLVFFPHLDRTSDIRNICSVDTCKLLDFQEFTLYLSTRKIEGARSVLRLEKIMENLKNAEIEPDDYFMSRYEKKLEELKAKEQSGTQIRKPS
The experiment in a line: crystal structure (2.8 A); Mg2+; one duplex per protomer; FP: 10 nM FAM substrate, 10 mM HEPES pH 7.4, 150 mM NaCl, 2.5 mM MgCl2; temperature not stated. Conditions: protein: recombinant; tags: N-terminal His; chain copies: 2; 12-bp duplex.

The target of data set [3] is T1, ExoG-H140A (catalytically dead). The experiment in a line: crystal structure (2.3 A); Mg2+; one duplex per protomer; FP: 10 nM FAM substrate, 10 mM HEPES pH 7.4, 150 mM NaCl, 2.5 mM MgCl2; temperature not stated. Conditions: protein: recombinant; tags: N-terminal His; chain copies: 2; blunt, self-complementary, 2 copies of strand.
The target is the same in data set [4]. The experiment in a line: crystal structure (3.0 A); Mg2+; one duplex per protomer; FP: 10 nM FAM substrate, 10 mM HEPES pH 7.4, 150 mM NaCl, 2.5 mM MgCl2; temperature not stated. Conditions: protein: recombinant; tags: N-terminal His; chain copies: 2; 12-bp duplex.
In data set [5] the target is T2, ExoG-H140A/F168A (Homo sapiens, UniProt Q9Y2C4 42-368, H140A;F168A).
T2 sequence: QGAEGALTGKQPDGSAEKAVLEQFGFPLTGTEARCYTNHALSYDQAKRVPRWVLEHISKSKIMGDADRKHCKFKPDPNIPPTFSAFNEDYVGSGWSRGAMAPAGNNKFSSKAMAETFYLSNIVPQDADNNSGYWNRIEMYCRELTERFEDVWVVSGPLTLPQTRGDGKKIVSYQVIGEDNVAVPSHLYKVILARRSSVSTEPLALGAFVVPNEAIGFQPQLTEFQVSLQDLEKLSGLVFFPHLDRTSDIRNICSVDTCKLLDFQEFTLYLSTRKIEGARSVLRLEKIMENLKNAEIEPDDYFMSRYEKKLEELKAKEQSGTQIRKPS
The experiment in a line: fluorescence polarization; 2.5 mM Mg2+; FP: 10 nM FAM substrate, 10 mM HEPES pH 7.4, 150 mM NaCl, 2.5 mM MgCl2; temperature not stated. Conditions: protein: recombinant; tags: N-terminal His; chain copies: 2; label: 3'-FAM strand 1; 5'-biotin strand 2; 20-bp duplex, 26-nt 3' overhang on strand 2. On the technique in general: Fluorescence polarisation rises when a labelled molecule tumbles more slowly, as on binding a larger partner.

The target of data set [6] is T3, ExoG-H140A/N176A (Homo sapiens, UniProt Q9Y2C4 42-368, H140A;N176A).
T3 sequence: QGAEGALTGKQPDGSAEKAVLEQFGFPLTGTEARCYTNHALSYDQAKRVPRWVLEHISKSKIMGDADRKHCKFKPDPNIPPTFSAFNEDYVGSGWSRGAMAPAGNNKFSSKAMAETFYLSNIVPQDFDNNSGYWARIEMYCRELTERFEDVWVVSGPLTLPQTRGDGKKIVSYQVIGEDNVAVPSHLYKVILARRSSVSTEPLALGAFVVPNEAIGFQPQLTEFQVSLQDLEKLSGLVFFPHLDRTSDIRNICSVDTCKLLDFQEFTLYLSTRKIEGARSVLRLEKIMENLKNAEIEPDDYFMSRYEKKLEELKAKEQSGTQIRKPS
Described as above. Conditions: protein: recombinant; tags: N-terminal His; chain copies: 2; label: 3'-FAM strand 1; 5'-biotin strand 2; 20-bp duplex, 26-nt 3' overhang on strand 2.

For data set [7], the target named is T1, ExoG-H140A (catalytically dead). The description is as above. Conditions: protein: recombinant; tags: N-terminal His; chain copies: 2; label: 3'-FAM strand 1; 5'-biotin strand 2; 20-bp duplex, 26-nt 3' overhang on strand 2.

B1: human ExoG-H140A (catalytically dead mutant of Exonuclease G, without the N-terminal MLS) (enzyme, UniProt Q9Y2C4 42-368, looked up)
chain: QGAEGALTGKQPDGSAEKAVLEQFGFPLTGTEARCYTNHALSYDQAKRVPRWVLEHISKSKIMGDADRKHCKFKPDPNIPPTFSAFNEDYVGSGWSRGAMAPAGNNKFSSKAMAETFYLSNIVPQDFDNNSGYWNRIEMYCRELTERFEDVWVVSGPLTLPQTRGDGKKIVSYQVIGEDNVAVPSHLYKVILARRSSVSTEPLALGAFVVPNEAIGFQPQLTEFQVSLQDLEKLSGLVFFPHLDRTSDIRNICSVDTCKLLDFQEFTLYLSTRKIEGARSVLRLEKIMENLKNAEIEPDDYFMSRYEKKLEELKAKEQSGTQIRKPS
notes: source: E. coli Rosetta 2 (DE3) pLysS, purified (HisTrap HP, Superdex 200 gel filtration)
For the molecule B1, in data set [1], the binding result is recorded as “binds”.

B2: 12-bp RNA/DNA hybrid (crystal) (DNA:RNA)
RNA: CGGGAUGUCACG
DNA: CGTGACATCCCG
modifications: 5'-phosphate on RNA strand; DNA strand 5'-OH
For the molecule B2, the binding result in data set [2] is listed as “binds”.

B3: 12-bp palindromic DNA (crystal) (dsDNA)
DNA 1: CGGGATATCCCG
DNA 2: CGGGATATCCCG
modifications: 5'-OH and 3'-OH
For the molecule B3, the binding result in data set [3] is “binds”.

B4: 12-nt R2-DNA/DNA chimeric duplex (crystal) (mixed)
DNA 1: CGGGATGTCACG
DNA 2: CGTGACATCCCG
modifications: two 5'-end ribonucleotides and 5'-phosphate on scissile strand; complement DNA 5'-OH
Turning to B4, the binding result in data set [4] is given as “binds”.

B5: R2-DNA/DNA (mixed)
DNA 1: GCTTAACGCTGACTCGCTAC
DNA 2: GTAGCGAGTCAGCGTTAAGCACTATCATAGCCATCTGCCATTACTG
modifications: strand 1 nt 1-2 (GC) are ribonucleotides, rest DNA; 5'-phosphate on strand 1
Consider B5, for which the results for the Kd in data set [5], in data set [6] and in data set [7] were 3150 ± 259 nM, 930 ± 63 nM and 1030 ± 86 nM, respectively.

B6: RNA/DNA (DNA:RNA)
RNA: GCUUAACGCUGACUCGCUAC
DNA: GTAGCGAGTCAGCGTTAAGCACTATCATAGCCATCTGCCATTACTG
modifications: strand 1 RNA with 5'-phosphate; strand 2 DNA
Take B6: the equilibrium dissociation constant (Kd) in data set [5] came to 250 ± 14 nM; in data set [6], 120 ± 8 nM; in data set [7], 190 ± 10 nM.

B7: DNA/DNA (dsDNA)
DNA 1: GCTTAACGCTGACTCGCTAC
DNA 2: GTAGCGAGTCAGCGTTAAGCACTATCATAGCCATCTGCCATTACTG
modifications: 5'-phosphate on strand 1
Take B7: the figures for the Kd in data set [5], in data set [6] and in data set [7] were 3930 ± 188 nM, 950 ± 63 nM and 1320 ± 79 nM, respectively.

Broadly, the Kd is the constant that tells how readily two partners part at equilibrium.
